Measured values as given in the supplement of paper PMC10567573.
± gives the standard deviation.

Experiment: protein stability index of a GFP-peptide fusion (GPS, HEK-293T) (PSI 1-6); higher = more stable
[1] = treatment: DMSO, c terminus: a fixed tail appended
[2] = treatment: MLN4924 1 uM, 8 h, c terminus: a fixed tail appended
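Note: 24-mer peptide tiles fused after GFP, lentivirally expressed, FACS-sorted into six equal bins by GFP/DsRed ratio, decoded by Illumina sequencing, PSI is the read-weighted mean bin number.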

| Sequence | protein stability index [1] | protein stability index [2] | protein stability index (treatment: DMSO, c terminus: native) | protein stability index (treatment: MLN4924 1 uM, 8 h, c terminus: native) |
| --- | --- | --- | --- | --- |
| GERETRTPEELTILGETQEEEDEI [CLCN6] | 5.79 ± 0.11 | 5.64 ± 0.37 | – | – |
| PPALLPLYFQWYIFYFVIQRKKWV [FADS1] | 2.68 ± 0.059 | 2.73 ± 1.6 | – | – |
| VDEAAAESPSFLSLRKGASLSNGQ [NCK2] | 4.83 ± 0.14 | 5.08 ± 0.23 | – | – |
| YTSELYPTVIRNVGLGTCSMFSRV [SLC22A15] | 2.13 ± 0.82 | 1.77 ± 0.12 | – | – |
| IGNPPVGPIGGMMPPQPGIPQQQG [ZNF207] | 4.62 ± 0.28 | 4.53 ± 0.21 | – | – |
| SFHSSGEKQKQPRWREGTKDSHDP [PBXIP1] | 5.08 ± 0.17 | 5.19 ± 0.24 | – | – |
| SDRPFKCNQCGKCFIQSSHLIRHQ [ZNF8] | 3.31 ± 0.17 | 3.76 ± 0.61 | – | – |
| IDLSHVTSKCGSLKNIRHRPGGGR [MAP2] | 3.18 ± 0.15 | 3.35 ± 0.3 | – | – |
| EEADFLSAETGSPRLTMHYPCLEK [IRX6] | 4.49 ± 0.19 | 4.56 ± 0.065 | – | – |
| IPKLTPGDNPYMYPEQSKGFHKAG [SPATS1] | 3.97 ± 0.28 | 3.84 ± 0.25 | – | – |
| ALTYACAGGYVDVVKVLLESGASI [ANKRD17] | 2.64 ± 0.33 | 2.79 ± 0.48 | – | – |
| ATIVFATDFYLIFNDVAKFLKQGD [CMTM3] | 2.9 ± 0.91 | 2.77 ± 0.43 | – | – |
| FLLKFLLVGDRDVGKSEILESLQD [RAB40A] | 2.65 ± 0.43 | 2.9 ± 0.56 | – | – |
| AGTGAQAGQLMGFFKGIDQDIERG [LYSMD4] | 4.01 ± 0.37 | 4.01 ± 0.29 | – | – |
| CLHHVHYLATEYLETHFRDVSSTE [GAN] | 2.37 ± 0.23 | 2.52 ± 0.54 | – | – |
| KHGIEYQSKPLLSAFADIIHSLKE [FADS1] | 2.51 ± 0.44 | 2.81 ± 0.49 | – | – |
| NRDLRKASVTIQARAEQEEEFISN [CCDC6] | 4.96 ± 0.26 | 5.05 ± 0.27 | – | – |
| GLMSFIGNRNKLGYSLARGSIGF [TPRG1] | – | – | 2.67 ± 0.39 | 2.5 ± 0.97 |
| RGLGSQASTVTEIVKQQDPLVYKA [ACSBG2] | 4.32 ± 0.041 | 4.31 ± 0.52 | – | – |
| EVTLSEAGSTAGAAETRGAVEGAA [PALM] | 5.43 ± 0.39 | 5.43 ± 0.17 | – | – |
| VCYQYPGYRGYQYILECDHHGGDY [CRYBA1] | 2.35 ± 0.4 | 2.08 ± 0.18 | – | – |
| KRSQSMKSYPSSELRNMCDEHIAS [CLCN6] | 4.56 ± 0.34 | 4.734 ± 0.012 | – | – |
| EKIQQDADSVITVGRGEVVTVRVP [ACBD3] | 4.55 ± 0.16 | 4.63 ± 0.14 | – | – |

| Sequence | protein stability index [1] | protein stability index [2] | protein stability index (treatment: DMSO, c terminus: native) | protein stability index (treatment: MLN4924 1 uM, 8 h, c terminus: native) |
| --- | --- | --- | --- | --- |
| CRLRCHPPRGPLAKHRLVPPAQGR [TRIM9] | 2.84 ± 0.14 | 3.47 ± 0.56 | – | – |
| ATSESTTVEPGKLDVGATEGQDLQ [DRICH1] | 5.46 ± 0.27 | 5.5 ± 0.22 | – | – |
| CKCSEGFVLAEDGRRCKKCTEGPI [MATN2] | 4.99 ± 0.2 | 5.41 ± 0.081 | – | – |
| ILELLVLEQFLAILPKELQAWVQK [ZNF396] | 2.67 ± 0.24 | 2.65 ± 0.5 | – | – |
| CSSSGKDGNLCLHVPNPPSGISFP [HESX1] | 3.15 ± 0.18 | 3.25 ± 0.33 | – | – |
| TRVPRAAIVFTDGRAQDDVSEWAS [MATN2] | 4.34 ± 0.36 | 4.48 ± 0.45 | – | – |
| VGLAVVNGQLMAVGGFDGTTYLKT [KLHL20] | 2.69 ± 0.54 | 2.23 ± 0.19 | – | – |
| EMSKDALPEKACQLDSRYWRITNA [FBXO3] | 3.55 ± 0.24 | 3.5 ± 0.16 | – | – |
| TGEFLKLPFERLAFVLSSNSLKHC [KLHL13] | 2.55 ± 0.73 | 2.85 ± 0.52 | – | – |
| SRVTDAAFNFLLVWYYCTLTIRES [TMEM120A] | 3 ± 0.1 | 2.62 ± 0.45 | – | – |
| ILGPVVGGYLTELEDGFYLTAFIC [MFSD9] | 2.99 ± 0.34 | 3.05 ± 0.88 | – | – |
| LETHFRDVSSTEEFLELSPQKLKE [GAN] | 5.38 ± 0.18 | 5.37 ± 0.084 | – | – |
| LLRQLGRDAGATPSAAGAPASAPG [ANKRD9] | 4.12 ± 0.4 | 4.36 ± 0.15 | – | – |
| FMLEIVTPTSLSSLSNAVANTMEH [FBXO33] | 2.77 ± 0.75 | 2.7 ± 0.55 | – | – |
| KGISQTNLITTVTPEKKAEEERDE [EPB41L3] | 5.54 ± 0.13 | 5.59 ± 0.2 | – | – |
| EFCEPAFVVGNCLQIASDSHQYDR [PCMTD1] | 3.5 ± 0.49 | 3.51 ± 0.31 | – | – |
| YEGGHIKGAVNLHMEEEVEDFLLK [CDC25A] | 4.6 ± 0.42 | 4.51 ± 0.076 | – | – |
| QEAAQLDMLLEKLPQVAEEISGPL [FLOT1] | 4.81 ± 0.29 | 4.76 ± 0.18 | – | – |
| RGMATKLLARPGTGEHREFKLDKK [FBF1] | 4.47 ± 0.33 | 4.62 ± 0.13 | – | – |
| VLSSTTLLPRQPLPLGIKVYEDET [PALM] | 4.23 ± 0.21 | 4.18 ± 0.16 | – | – |
| LLQTEPQNNQAKELERLIDKAMKK [FIS1] | 3.99 ± 0.19 | 4.27 ± 0.17 | – | – |
| HDLIFWRDVKKTGFVFGTTLIMLL [RTN3] | 2.81 ± 0.37 | 2.66 ± 0.49 | – | – |
